Results published in the Human Domainome abundance scans (Beltran et al. 2025).
± gives the uncertainty stated by the source.

B1: Transcriptional repressor p66-beta, residues 415 to 455; numbered along this chain, Q8WXI9 (parent)
chain: VEPFVCAQCRTDFTPHWKQEKNGKILCEQCMTSNQKKALKA

Variants of: B1
Test: abundance fitness (aPCA) (normalised: wild type 0, dead -1); higher = more abundant; growth selection in yeast, the domain comes from the species named
Settings: Homo sapiens

| Variant | abundance fitness |
| --- | --- |
| C27S | -0.739 ± 0.13 |
| C27H | 0.039 ± 0.18 |
| C27G | -1.05 ± 0.21 |
| C27A | -1.01 ± 0.18 |
| C27T | -1.38 ± 0.32 |
| C27V | -1.11 ± 0.23 |
| C27L | -1.32 ± 0.27 |
| C27Y | -0.444 ± 0.43 |
| C27R | -1.06 ± 0.17 |
| C27D | -0.504 ± 0.3 |
| C27W | -1.02 ± 0.18 |
| C27M | -1.31 ± 0.42 |
| C27Q | -0.79 ± 0.29 |
| C27E | -0.319 ± 0.27 |
| I25A | -0.306 ± 0.07 |
| I25Y | -0.307 ± 0.23 |
| I25T | -0.054 ± 0.086 |
| I25Q | -0.029 ± 0.15 |
| I25L | -0.158 ± 0.083 |
| I25K | -0.026 ± 0.095 |
| I25P | 0.069 ± 0.096 |
| I25V | -0.407 ± 0.089 |
| I25D | 0.714 ± 0.27 |
| I25E | -0.118 ± 0.11 |

| Variant | abundance fitness |
| --- | --- |
| I25S | -0.246 ± 0.12 |
| I25R | -0.168 ± 0.07 |
| I25M | -0.081 ± 0.076 |
| I25F | -0.132 ± 0.14 |
| I25W | -0.287 ± 0.1 |
| I25C | -0.192 ± 0.12 |
| K24M | -0.082 ± 0.11 |
| K24A | -0.079 ± 0.073 |
| K24C | -0.213 ± 0.15 |
| K24R | 0.028 ± 0.059 |
| K24E | 0.17 ± 0.094 |
| K24Q | 0.097 ± 0.094 |
| K24S | -0.228 ± 0.095 |
| K24T | -0.174 ± 0.14 |
| K24H | 0.013 ± 0.42 |
| K24V | -0.148 ± 0.076 |
| K24L | -0.106 ± 0.07 |
| K24D | -0.166 ± 0.47 |
| K24G | -0.02 ± 0.058 |
| C30D | -0.315 ± 0.19 |
| C30E | -1.11 ± 0.2 |
| C30R | -0.84 ± 0.12 |
| C30W | -1.07 ± 0.13 |
| C30K | -0.635 ± 0.18 |

| Variant | abundance fitness |
| --- | --- |
| C30Q | -0.795 ± 0.29 |
| C30A | -0.488 ± 0.13 |
| C30H | -0.672 ± 0.28 |
| C30V | -0.664 ± 0.13 |
| C30L | -0.786 ± 0.11 |
| L26C | -0.075 ± 0.27 |
| L26F | 0.003 ± 0.12 |
| L26E | -0.194 ± 0.093 |
| L26W | -0.113 ± 0.1 |
| L26H | 0.12 ± 0.38 |
| L26T | -0.39 ± 0.16 |
| L26D | -0.295 ± 0.097 |
| L26G | -0.304 ± 0.059 |
| L26K | -0.218 ± 0.13 |
| L26R | -0.145 ± 0.067 |
| L26M | 0.358 ± 0.37 |
| L26N | -0.411 ± 0.22 |
| L26S | -0.077 ± 0.086 |
| L26I | -0.004 ± 0.2 |
| L26V | -0.196 ± 0.073 |
| L26Q | -0.075 ± 0.11 |
| L26P | -0.125 ± 0.088 |
| M31S | -0.042 ± 0.12 |
| M31E | -0.033 ± 0.085 |

| Variant | abundance fitness |
| --- | --- |
| M31Q | 0.05 ± 0.086 |
| M31D | -0.106 ± 0.11 |
| M31K | -0.043 ± 0.14 |
| M31W | -0.041 ± 0.072 |
| M31A | -0.038 ± 0.07 |
| M31R | -0.178 ± 0.062 |
| M31T | -0.054 ± 0.12 |
| M31V | -0.083 ± 0.069 |
| M31Y | 0.161 ± 0.19 |
| M31L | -0.274 ± 0.11 |
| M31G | 0.01 ± 0.059 |
| M31P | -0.97 ± 0.29 |
| N34C | -0.197 ± 0.091 |
| N34E | 0.127 ± 0.073 |
| N34A | -0.076 ± 0.077 |
| Q29Y | -0.329 ± 0.32 |
| Q29H | 0.333 ± 0.12 |
| Q29K | 0.086 ± 0.11 |
| Q29C | -0.491 ± 0.36 |
| Q29S | -0.156 ± 0.093 |
| Q29E | -0.097 ± 0.14 |
| Q29T | -0.253 ± 0.12 |
| Q29V | -0.389 ± 0.086 |
| Q29L | -0.042 ± 0.087 |

| Variant | abundance fitness |
| --- | --- |
| Q29W | -0.3 ± 0.15 |
| Q29F | -0.153 ± 0.12 |
| Q29G | -0.15 ± 0.07 |
| Q29D | -0.083 ± 0.25 |
| Q29I | -0.177 ± 0.16 |
| Q29M | -0.14 ± 0.095 |
| Q29R | 0.02 ± 0.058 |
| Q29P | -0.141 ± 0.12 |
| G23Q | 0.335 ± 0.22 |
| G23T | 0.045 ± 0.15 |
| G23P | -0.016 ± 0.16 |
| G23D | 0.343 ± 0.12 |
| G23W | -0.392 ± 0.14 |
| G23R | 0.003 ± 0.067 |
| G23C | -0.137 ± 0.18 |
| G23V | 0.092 ± 0.062 |
| G23L | 0.142 ± 0.14 |
| G23N | 0.303 ± 0.18 |
| G23S | -0.104 ± 0.14 |
| G23E | 0.189 ± 0.083 |
| G23M | 0.422 ± 0.21 |
| G23H | 0.385 ± 0.27 |
| S33W | -0.379 ± 0.14 |
| S33D | 0.002 ± 0.24 |

| Variant | abundance fitness |
| --- | --- |
| S33K | -0.222 ± 0.2 |
| S33C | -0.113 ± 0.2 |
| S33E | -0.007 ± 0.086 |
| S33R | -0.122 ± 0.072 |
| S33T | -0.01 ± 0.087 |
| S33V | -0.104 ± 0.092 |
| S33H | 0.121 ± 0.49 |
| S33Y | 0.28 ± 0.2 |
| S33Q | -0.017 ± 0.077 |
| S33A | -0.04 ± 0.072 |
| S33F | -0.919 ± 0.46 |
| S33P | -0.011 ± 0.17 |
| S33L | -0.176 ± 0.089 |
| S33M | 0.048 ± 0.088 |
| E28K | -0.062 ± 0.17 |
| E28A | -0.122 ± 0.091 |
| E28T | 0.029 ± 0.17 |
| E28G | -0.066 ± 0.072 |
| E28Y | -0.16 ± 0.13 |
| E28S | -0.006 ± 0.087 |
| E28M | -0.159 ± 0.11 |
| E28F | -0.356 ± 0.21 |
| E28I | -0.418 ± 0.13 |
| E28N | 0.03 ± 0.13 |

| Variant | abundance fitness |
| --- | --- |
| E28C | 0.074 ± 0.23 |
| E28P | -0.178 ± 0.098 |
| E28L | -0.181 ± 0.086 |
| E28R | -0.343 ± 0.078 |
| E28Q | -0.222 ± 0.12 |
| E28H | -0.066 ± 0.29 |
| E28D | 0.08 ± 0.17 |
| E28W | -0.307 ± 0.096 |
| T32A | -0.047 ± 0.061 |
| T32I | -0.033 ± 0.13 |
| T32Q | -0.173 ± 0.092 |
| T32S | -0.312 ± 0.13 |
| T32P | -0.056 ± 0.14 |
| T32G | -0.121 ± 0.065 |
| T32C | -0.177 ± 0.17 |
| T32W | -0.453 ± 0.08 |
| T32K | 0.045 ± 0.26 |
| T32E | -0.186 ± 0.092 |
| T32F | -0.143 ± 0.25 |
| T32M | -0.145 ± 0.087 |
| T32V | -0.127 ± 0.06 |
| T32L | -0.312 ± 0.093 |
| T32R | -0.145 ± 0.062 |
